Laboratory results from patent US20180030151A1 (MOGAM INSTITUTE FOR BIOMEDICAL RESEARCH, published 2018).
Like-named read-outs stand apart in the source and are kept apart here.

Legend:
Experiment in all cases: cell-based or functional assay
[1] = molecular target: T1, recombinant human TFPI (tissue factor pathway inhibitor) (human, UniProt P10646 29-304)
[2] = molecular target: T1, recombinant human TFPI (tissue factor …); remark: listed apart in the source
[3] = molecular target: T1, recombinant human TFPI (tissue factor …); remark: listed apart in the source
[4] = molecular target: T1, recombinant human TFPI (tissue factor …); remark: listed apart in the source
[5] = molecular target: T1, recombinant human TFPI (tissue factor …); remark: listed apart in the source
[6] = molecular target: T1, recombinant human TFPI (tissue factor …); remark: listed apart in the source
[7] = molecular target: T1, recombinant human TFPI (tissue factor …); remark: listed apart in the source
[8] = molecular target: T1, recombinant human TFPI (tissue factor …); remark: listed apart in the source
[9] = molecular target: T1, recombinant human TFPI (tissue factor …); remark: listed apart in the source
[10] = molecular target: T1, recombinant human TFPI (tissue factor …); remark: listed apart in the source
[11] = molecular target: T1, recombinant human TFPI (tissue factor …); remark: listed apart in the source

B1: clone 1123 (antibody, V domains shown)
VH: EVQLVESGGGLVKPGGSLRLSCAASGFTFSSYAMNWVRQAPGKGLEWVSTITTGGSHTYYADSVEGRFTISRDNAKNSLYLQMNSLRAEDTAVYYCARQDGHFLMDYWGQGTLVTVSS
VL: DVVMTQTPLSLPVTLGQPASISCKSSQSLLDIDGKTYLNWLQQRPGQSPKRLIYLVSKLDSGVPDRFTGSGSGTDFTLKISRVEAEDVGVYYCWQGTHFPFTFGQGTKVEIKR
For B1, the “effect of inhibiting TFPI, FXa activity assay, Ab 10 nM” value (from here on “effect of inhibiting TFPI … Ab 10 nM”) [1] was roughly 69%, the “effect of inhibiting TFPI, FXa activity assay, Ab 20 nM” value (shortened to “effect of inhibiting TFPI … Ab 20 nM”) [1] was roughly 88% and the “A405, TF/FVIIa/FX complex assay, Ab 1.56 nM” value [2] was 0.14. For the same binder, the “A405, TF/FVIIa/FX complex assay, Ab 3.13 nM” value [2] was 0.151, the “A405, TF/FVIIa/FX complex assay, Ab 6.25 nM” value [2] was 0.15 and the “A405, TF/FVIIa/FX complex assay, Ab 12.5 nM” value [2] was 0.157. For the same binder, the “A405, TF/FVIIa/FX complex assay, Ab 25 nM” value [2] was 0.272, the “A405, TF/FVIIa/FX complex assay, Ab 50 nM” value [2] was 0.77 and the “A405, TF/FVIIa/FX complex assay, Ab 100 nM” value [2] was 0.905. For the same binder, the “% of Normalized, TF/FVIIa/FX complex assay, Ab 1.56 nM” value (“% of Normalized … Ab 1.56 nM” below) [3] was 14.7%, the “% of Normalized, TF/FVIIa/FX complex assay, Ab 3.13 nM” value (“% of Normalized … Ab 3.13 nM” for short) [3] was 15.8% and the “% of Normalized, TF/FVIIa/FX complex assay, Ab 6.25 nM” value (from here on “% of Normalized … Ab 6.25 nM”) [3] was 15.7%. The “% of Normalized, TF/FVIIa/FX complex assay, Ab 12.5 nM” value (from here on “% of Normalized … Ab 12.5 nM”) [3] was 16.4%, the “% of Normalized, TF/FVIIa/FX complex assay, Ab 25 nM” value (from here on “% of Normalized … Ab 25 nM”) [3] was 28.5% and the “% of Normalized, TF/FVIIa/FX complex assay, Ab 50 nM” value (“% of Normalized … Ab 50 nM” below) [3] was 80.7%. The “% of Normalized, TF/FVIIa/FX complex assay, Ab 100 nM” value (shortened to “% of Normalized … Ab 100 nM”) [3] was 94.8%, the “FXa assay % of FXa alone, 2.5 nM Ab, 10 nM TFPI” value [4] was 6.5% and the “FXa assay % of FXa alone, 5 nM Ab, 10 nM TFPI” value [4] was 14.7%. The “FXa assay OD, 2.5 nM Ab, 10 nM TFPI” value [4] was 0.0315, the “FXa assay OD, 5 nM Ab, 10 nM TFPI” value [4] was 0.071 and the “FXa assay OD, 10 nM Ab, 10 nM TFPI” value [4] was 0.332. For the same binder, the “FXa assay OD, 20 nM Ab, 10 nM TFPI” value [4] was 0.424.

B2: clone A67 (antibody, V domains shown)
VH: EVQLVESGGGLVKPGGSLRLSCAASGFTFSSYAMNWVRQAPGKGLEWVSTITTGGSYTYYADSVEGRFTISRDNAKNSLYLQMNSLRAEDTAVYYCARQDGNFLMDYWGQGTLVTVSS
VL: DVVMTQTPLSLPVTLGQPASISCKSSQSLLDLDGKTYLNWLQQRPGQSPKRLIYLVSKLDSGVPDRFTGSGSGTDFTLKISRVEAEDVGVYYCWQGTHFPFTFGQGTKVEIKR
B2 was tested, and the “effect of inhibiting TFPI … Ab 10 nM” value [1] was roughly 67%, the “effect of inhibiting TFPI … Ab 20 nM” value [1] was roughly 79% and the “A405, TF/FVIIa/FX complex assay, Ab 1.56 nM” value [2] was 0.154. For the same binder, the “A405, TF/FVIIa/FX complex assay, Ab 3.13 nM” value [2] was 0.177, the “A405, TF/FVIIa/FX complex assay, Ab 6.25 nM” value [2] was 0.196 and the “A405, TF/FVIIa/FX complex assay, Ab 12.5 nM” value [2] was 0.29. The “A405, TF/FVIIa/FX complex assay, Ab 25 nM” value [2] was 0.914, the “A405, TF/FVIIa/FX complex assay, Ab 50 nM” value [2] was 0.895 and the “A405, TF/FVIIa/FX complex assay, Ab 100 nM” value [2] was 0.907. For the same binder, the “% of Normalized … Ab 1.56 nM” value [3] was 16.1%, the “% of Normalized … Ab 3.13 nM” value [3] was 18.5% and the “% of Normalized … Ab 6.25 nM” value [3] was 20.5%. The “% of Normalized … Ab 12.5 nM” value [3] was 30.3%, the “% of Normalized … Ab 25 nM” value [3] was 95.8% and the “% of Normalized … Ab 50 nM” value [3] was 93.7%. For the same binder, the “% of Normalized … Ab 100 nM” value [3] was 95%, the “A405, TF/FVIIa/FX complex assay, Ab 1.56 nM” value [5] was 0.149 and the “A405, TF/FVIIa/FX complex assay, Ab 3.13 nM” value [5] was 0.172. For the same binder, the “A405, TF/FVIIa/FX complex assay, Ab 6.25 nM” value [5] was 0.195, the “A405, TF/FVIIa/FX complex assay, Ab 12.5 nM” value [5] was 0.33 and the “A405, TF/FVIIa/FX complex assay, Ab 25 nM” value [5] was 0.908. For the same binder, the “A405, TF/FVIIa/FX complex assay, Ab 50 nM” value [5] was 0.938, the “A405, TF/FVIIa/FX complex assay, Ab 100 nM” value [5] was 0.947 and the “% of Normalized … Ab 1.56 nM” value [6] was 16.3%. For the same binder, the “% of Normalized … Ab 3.13 nM” value [6] was 18.7%, the “% of Normalized … Ab 6.25 nM” value [6] was 21.3% and the “% of Normalized … Ab 12.5 nM” value [6] was 36.1%. For the same binder, the “% of Normalized … Ab 25 nM” value [6] was 99.2%, the “% of Normalized … Ab 50 nM” value [6] was 102% and the “% of Normalized … Ab 100 nM” value [6] was 104%. For the same binder, the “FXa assay % of FXa alone, 2.5 nM Ab, 10 nM TFPI” value [7] was 9.2%, the “FXa assay % of FXa alone, 5 nM Ab, 10 nM TFPI” value [7] was 41.9% and the “FXa assay OD, 2.5 nM Ab, 10 nM TFPI” value [7] was 0.0745. For the same binder, the “FXa assay OD, 5 nM Ab, 10 nM TFPI” value [7] was 0.338, the “FXa assay OD, 10 nM Ab, 10 nM TFPI” value [7] was 0.543 and the “FXa assay OD, 20 nM Ab, 10 nM TFPI” value [7] was 0.637. For the same binder, the “FXa assay % of FXa alone, 2.5 nM Ab, 10 nM TFPI” value [8] was 8%, the “FXa assay % of FXa alone, 5 nM Ab, 10 nM TFPI” value [8] was 28.8% and the “FXa assay % of FXa alone, 10 nM Ab, 10 nM TFPI” value [8] was 63.5%. For the same binder, the “FXa assay % of FXa alone, 20 nM Ab, 10 nM TFPI” value [8] was 75.8%, the “FXa assay OD, 2.5 nM Ab, 10 nM TFPI” value [8] was 0.065 and the “FXa assay OD, 5 nM Ab, 10 nM TFPI” value [8] was 0.234. For the same binder, the “FXa assay OD, 10 nM Ab, 10 nM TFPI” value [8] was 0.516 and the “FXa assay OD, 20 nM Ab, 10 nM TFPI” value [8] was 0.616.

B3: clone 4017 (antibody, V domains shown)
VH: EVQLVESGGGLVKPGGSLRLSCAASGFTFSSYAMNWVRQAPGKGLEWVGTITTGGSYTYYADSVQGRFTISRDNAKNSLYLQMNSLRAEDTAVYYCARQDGYFLMDYWGQGTLVTVSS
VL: DVVMTQTPLSLPVTLGQPASISCKSSQSLLDIDGKTYLNWLQQRPGQSPKRLIYLVSKLDSGVPDRFTGSGSGTDFTLKISRVEAEDVGVYYCWQGTHFPFTFGQGTKVEIKR
For B3, the “effect of inhibiting TFPI … Ab 10 nM” value [1] was roughly 70%, the “effect of inhibiting TFPI … Ab 20 nM” value [1] was roughly 90% and the “A405, TF/FVIIa/FX complex assay, Ab 1.56 nM” value [9] was 0.134. The “A405, TF/FVIIa/FX complex assay, Ab 3.13 nM” value [9] was 0.138, the “A405, TF/FVIIa/FX complex assay, Ab 6.25 nM” value [9] was 0.15 and the “A405, TF/FVIIa/FX complex assay, Ab 12.5 nM” value [9] was 0.181. For the same binder, the “A405, TF/FVIIa/FX complex assay, Ab 25 nM” value [9] was 0.307, the “A405, TF/FVIIa/FX complex assay, Ab 50 nM” value [9] was 0.919 and the “A405, TF/FVIIa/FX complex assay, Ab 100 nM” value [9] was 0.943. For the same binder, the “% of Normalized … Ab 1.56 nM” value [10] was 14.5%, the “% of Normalized … Ab 3.13 nM” value [10] was 15% and the “% of Normalized … Ab 6.25 nM” value [10] was 16.3%. The “% of Normalized … Ab 12.5 nM” value [10] was 19.7%, the “% of Normalized … Ab 25 nM” value [10] was 33.4% and the “% of Normalized … Ab 50 nM” value [10] was 100%. For the same binder, the “% of Normalized … Ab 100 nM” value [10] was 103%, the “FXa assay % of FXa alone, 2.5 nM Ab, 10 nM TFPI” value [11] was 6% and the “FXa assay % of FXa alone, 5 nM Ab, 10 nM TFPI” value [11] was 10.6%. The “FXa assay OD, 2.5 nM Ab, 10 nM TFPI” value [11] was 0.046, the “FXa assay OD, 5 nM Ab, 10 nM TFPI” value [11] was 0.0815 and the “FXa assay OD, 10 nM Ab, 10 nM TFPI” value [11] was 0.54. For the same binder, the “FXa assay OD, 20 nM Ab, 10 nM TFPI” value [11] was 0.696.
